Starred links: 1 amine or outer side, 2 acyl side, 3 side chain; linkers in the order of their positions; H or OH if unused. Positions of bridges follow the written chain, without caps; N, C: chain ends. Non-standard residues stand in square brackets, D forms with d. St = two pentenyl-alanine olefin side chains, each crosslinked to another residue (stitch), C=CCCCC(CCCC=C)(N[*:1])C(=O)[*:2]; R8 = C=CCCCCCC[C@@](C)(N)C(=O)O; R5 = C=CCCC[C@@](C)(N)C(=O)O; S5 = C=CCCC[C@](C)(N)C(=O)O
B1: Cross-linked peptide #1 (peptide)
peptide: Ac-IWIAQALR[R8]IGDEFN[S5]YYA-NH2
modifications: staple 9-16
SMILES: CC[C@H](C)[C@H](NC(C)=O)C(=O)N[C@@H](Cc1c[nH]c2ccccc12)C(=O)N[C@H](C(=O)N[C@@H](C)C(=O)N[C@@H](CCC(N)=O)C(=O)N[C@@H](C)C(=O)N[C@@H](CC(C)C)C(=O)N[C@@H](CCCNC(=N)N)C(=O)N[C@]1(C)CCCCCCC=CCCC[C@@](C)(C(=O)N[C@@H](Cc2ccc(O)cc2)C(=O)N[C@@H](Cc2ccc(O)cc2)C(=O)N[C@@H](C)C(N)=O)NC(=O)[C@H](CC(N)=O)NC(=O)[C@H](Cc2ccccc2)NC(=O)[C@H](CCC(=O)O)NC(=O)[C@H](CC(=O)O)NC(=O)CNC(=O)[C@H]([C@@H](C)CC)NC1=O)[C@@H](C)CC
B2: Cross-linked peptide #7 (peptide)
peptide: Ac-IWIAQALR[R8]IGDAAN[S5]YYA-NH2
modifications: staple 9-16
SMILES: CC[C@H](C)[C@H](NC(C)=O)C(=O)N[C@@H](Cc1c[nH]c2ccccc12)C(=O)N[C@H](C(=O)N[C@@H](C)C(=O)N[C@@H](CCC(N)=O)C(=O)N[C@@H](C)C(=O)N[C@@H](CC(C)C)C(=O)N[C@@H](CCCNC(=N)N)C(=O)N[C@]1(C)CCCCCCC=CCCC[C@@](C)(C(=O)N[C@@H](Cc2ccc(O)cc2)C(=O)N[C@@H](Cc2ccc(O)cc2)C(=O)N[C@@H](C)C(N)=O)NC(=O)[C@H](CC(N)=O)NC(=O)[C@H](C)NC(=O)[C@H](C)NC(=O)[C@H](CC(=O)O)NC(=O)CNC(=O)[C@H]([C@@H](C)CC)NC1=O)[C@@H](C)CC
B3: Cross-linked peptide #2 (peptide)
peptide: Ac-IWIAQALR[R8]IGDQFN[S5]YYA-NH2
modifications: staple 9-16
SMILES: CC[C@H](C)[C@H](NC(C)=O)C(=O)N[C@@H](Cc1c[nH]c2ccccc12)C(=O)N[C@H](C(=O)N[C@@H](C)C(=O)N[C@@H](CCC(N)=O)C(=O)N[C@@H](C)C(=O)N[C@@H](CC(C)C)C(=O)N[C@@H](CCCNC(=N)N)C(=O)N[C@]1(C)CCCCCCC=CCCC[C@@](C)(C(=O)N[C@@H](Cc2ccc(O)cc2)C(=O)N[C@@H](Cc2ccc(O)cc2)C(=O)N[C@@H](C)C(N)=O)NC(=O)[C@H](CC(N)=O)NC(=O)[C@H](Cc2ccccc2)NC(=O)[C@H](CCC(N)=O)NC(=O)[C@H](CC(=O)O)NC(=O)CNC(=O)[C@H]([C@@H](C)CC)NC1=O)[C@@H](C)CC
B4: Cross-linked peptide #9 (peptide)
peptide: Ac-IWIAQALR[R8]IADQFN[S5]YYA-NH2
modifications: staple 9-16
SMILES: CC[C@H](C)[C@H](NC(C)=O)C(=O)N[C@@H](Cc1c[nH]c2ccccc12)C(=O)N[C@H](C(=O)N[C@@H](C)C(=O)N[C@@H](CCC(N)=O)C(=O)N[C@@H](C)C(=O)N[C@@H](CC(C)C)C(=O)N[C@@H](CCCNC(=N)N)C(=O)N[C@]1(C)CCCCCCC=CCCC[C@@](C)(C(=O)N[C@@H](Cc2ccc(O)cc2)C(=O)N[C@@H](Cc2ccc(O)cc2)C(=O)N[C@@H](C)C(N)=O)NC(=O)[C@H](CC(N)=O)NC(=O)[C@H](Cc2ccccc2)NC(=O)[C@H](CCC(N)=O)NC(=O)[C@H](CC(=O)O)NC(=O)[C@H](C)NC(=O)[C@H]([C@@H](C)CC)NC1=O)[C@@H](C)CC
B5: Cross-linked peptide #10 (peptide)
peptide: Ac-IWIAQALR[R8]AGDQFN[S5]YYA-NH2
modifications: staple 9-16
SMILES: CC[C@H](C)[C@H](NC(C)=O)C(=O)N[C@@H](Cc1c[nH]c2ccccc12)C(=O)N[C@H](C(=O)N[C@@H](C)C(=O)N[C@@H](CCC(N)=O)C(=O)N[C@@H](C)C(=O)N[C@@H](CC(C)C)C(=O)N[C@@H](CCCNC(=N)N)C(=O)N[C@]1(C)CCCCCCC=CCCC[C@@](C)(C(=O)N[C@@H](Cc2ccc(O)cc2)C(=O)N[C@@H](Cc2ccc(O)cc2)C(=O)N[C@@H](C)C(N)=O)NC(=O)[C@H](CC(N)=O)NC(=O)[C@H](Cc2ccccc2)NC(=O)[C@H](CCC(N)=O)NC(=O)[C@H](CC(=O)O)NC(=O)CNC(=O)[C@H](C)NC1=O)[C@@H](C)CC
B6: Cross-linked peptide #11 (peptide)
peptide: Ac-IWIAQALA[R8]IGDAFN[S5]YYA-NH2
modifications: staple 9-16
SMILES: CC[C@H](C)[C@H](NC(C)=O)C(=O)N[C@@H](Cc1c[nH]c2ccccc12)C(=O)N[C@H](C(=O)N[C@@H](C)C(=O)N[C@@H](CCC(N)=O)C(=O)N[C@@H](C)C(=O)N[C@@H](CC(C)C)C(=O)N[C@@H](C)C(=O)N[C@]1(C)CCCCCCC=CCCC[C@@](C)(C(=O)N[C@@H](Cc2ccc(O)cc2)C(=O)N[C@@H](Cc2ccc(O)cc2)C(=O)N[C@@H](C)C(N)=O)NC(=O)[C@H](CC(N)=O)NC(=O)[C@H](Cc2ccccc2)NC(=O)[C@H](C)NC(=O)[C@H](CC(=O)O)NC(=O)CNC(=O)[C@H]([C@@H](C)CC)NC1=O)[C@@H](C)CC
B7: Cross-linked peptide #12 (peptide)
peptide: Ac-IWIAQALR[R8]IGNAFN[S5]YYA-NH2
modifications: staple 9-16
SMILES: CC[C@H](C)[C@H](NC(C)=O)C(=O)N[C@@H](Cc1c[nH]c2ccccc12)C(=O)N[C@H](C(=O)N[C@@H](C)C(=O)N[C@@H](CCC(N)=O)C(=O)N[C@@H](C)C(=O)N[C@@H](CC(C)C)C(=O)N[C@@H](CCCNC(=N)N)C(=O)N[C@]1(C)CCCCCCC=CCCC[C@@](C)(C(=O)N[C@@H](Cc2ccc(O)cc2)C(=O)N[C@@H](Cc2ccc(O)cc2)C(=O)N[C@@H](C)C(N)=O)NC(=O)[C@H](CC(N)=O)NC(=O)[C@H](Cc2ccccc2)NC(=O)[C@H](C)NC(=O)[C@H](CC(N)=O)NC(=O)CNC(=O)[C@H]([C@@H](C)CC)NC1=O)[C@@H](C)CC
B8: Cross-linked peptide #8 (peptide)
peptide: Ac-IWIAQALR[R8]IGDQAN[S5]YYA-NH2
modifications: staple 9-16
SMILES: CC[C@H](C)[C@H](NC(C)=O)C(=O)N[C@@H](Cc1c[nH]c2ccccc12)C(=O)N[C@H](C(=O)N[C@@H](C)C(=O)N[C@@H](CCC(N)=O)C(=O)N[C@@H](C)C(=O)N[C@@H](CC(C)C)C(=O)N[C@@H](CCCNC(=N)N)C(=O)N[C@]1(C)CCCCCCC=CCCC[C@@](C)(C(=O)N[C@@H](Cc2ccc(O)cc2)C(=O)N[C@@H](Cc2ccc(O)cc2)C(=O)N[C@@H](C)C(N)=O)NC(=O)[C@H](CC(N)=O)NC(=O)[C@H](C)NC(=O)[C@H](CCC(N)=O)NC(=O)[C@H](CC(=O)O)NC(=O)CNC(=O)[C@H]([C@@H](C)CC)NC1=O)[C@@H](C)CC
B9: Cross-linked peptide #13 (peptide)
peptide: Ac-IWIAQAAR[R8]IGDAFN[S5]YYA-NH2
modifications: staple 9-16
SMILES: CC[C@H](C)[C@H](NC(C)=O)C(=O)N[C@@H](Cc1c[nH]c2ccccc12)C(=O)N[C@H](C(=O)N[C@@H](C)C(=O)N[C@@H](CCC(N)=O)C(=O)N[C@@H](C)C(=O)N[C@@H](C)C(=O)N[C@@H](CCCNC(=N)N)C(=O)N[C@]1(C)CCCCCCC=CCCC[C@@](C)(C(=O)N[C@@H](Cc2ccc(O)cc2)C(=O)N[C@@H](Cc2ccc(O)cc2)C(=O)N[C@@H](C)C(N)=O)NC(=O)[C@H](CC(N)=O)NC(=O)[C@H](Cc2ccccc2)NC(=O)[C@H](C)NC(=O)[C@H](CC(=O)O)NC(=O)CNC(=O)[C@H]([C@@H](C)CC)NC1=O)[C@@H](C)CC
B10: Cross-linked peptide #4 (peptide)
peptide: Ac-IWIAAALR[R8]IGDQFN[S5]YYA-NH2
modifications: staple 9-16
SMILES: CC[C@H](C)[C@H](NC(C)=O)C(=O)N[C@@H](Cc1c[nH]c2ccccc12)C(=O)N[C@H](C(=O)N[C@@H](C)C(=O)N[C@@H](C)C(=O)N[C@@H](C)C(=O)N[C@@H](CC(C)C)C(=O)N[C@@H](CCCNC(=N)N)C(=O)N[C@]1(C)CCCCCCC=CCCC[C@@](C)(C(=O)N[C@@H](Cc2ccc(O)cc2)C(=O)N[C@@H](Cc2ccc(O)cc2)C(=O)N[C@@H](C)C(N)=O)NC(=O)[C@H](CC(N)=O)NC(=O)[C@H](Cc2ccccc2)NC(=O)[C@H](CCC(N)=O)NC(=O)[C@H](CC(=O)O)NC(=O)CNC(=O)[C@H]([C@@H](C)CC)NC1=O)[C@@H](C)CC
B11: Cross-linked peptide #3 (peptide)
peptide: Ac-IWIAAALR[R8]IGDEFN[S5]YYA-NH2
modifications: staple 9-16
SMILES: CC[C@H](C)[C@H](NC(C)=O)C(=O)N[C@@H](Cc1c[nH]c2ccccc12)C(=O)N[C@H](C(=O)N[C@@H](C)C(=O)N[C@@H](C)C(=O)N[C@@H](C)C(=O)N[C@@H](CC(C)C)C(=O)N[C@@H](CCCNC(=N)N)C(=O)N[C@]1(C)CCCCCCC=CCCC[C@@](C)(C(=O)N[C@@H](Cc2ccc(O)cc2)C(=O)N[C@@H](Cc2ccc(O)cc2)C(=O)N[C@@H](C)C(N)=O)NC(=O)[C@H](CC(N)=O)NC(=O)[C@H](Cc2ccccc2)NC(=O)[C@H](CCC(=O)O)NC(=O)[C@H](CC(=O)O)NC(=O)CNC(=O)[C@H]([C@@H](C)CC)NC1=O)[C@@H](C)CC
B12: Cross-linked peptide #6 (peptide)
peptide: IWIAQALXAIGDQFNAYYA
modifications: not fully specified; N-terminal Ac; Cit at residue 8 (column 153); $r8 at residue 9 (column 154) and $ at residue 16 (column 161), crosslinked; C-terminal NH2

target: T1, MCL-1 (UniProt Q07820 172-327, limits assumed); assay: Ki (Table 6); method not stated
T1 construct: Target of the Ki columns; also called Myeloid cell leukemia 1
T1 sequence (Q07820 172-327 limits assumed): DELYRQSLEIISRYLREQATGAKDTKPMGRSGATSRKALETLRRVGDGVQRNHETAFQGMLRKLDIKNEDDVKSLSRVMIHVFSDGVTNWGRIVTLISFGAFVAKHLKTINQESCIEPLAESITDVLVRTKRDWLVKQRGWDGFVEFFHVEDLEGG

Point of comparison: B1, Ki 1.8 nM. Against it:
- B2 — 4.2-fold higher, 7.5 nM
- B3 — 2.9-fold higher, 5.2 nM
- B4 — 64-fold higher, 116 nM
- B5 — 68-fold higher, 122 nM
- B6 — 41-fold higher, 73.8 nM
- B7 — 110-fold higher, 195 nM
- B8 — within 1.5-fold, 1.4 nM
- B9 — 280-fold higher, 501 nM
- B10 — 3.3-fold higher, 6 nM
- B11 — 1.8-fold lower, 1 nM

target: T2, BCL-XL (UniProt Q07817 1-209); assay: Ki (Table 6); method not stated
T2 construct: Target of the Ki columns
T2 sequence (Q07817 1-209): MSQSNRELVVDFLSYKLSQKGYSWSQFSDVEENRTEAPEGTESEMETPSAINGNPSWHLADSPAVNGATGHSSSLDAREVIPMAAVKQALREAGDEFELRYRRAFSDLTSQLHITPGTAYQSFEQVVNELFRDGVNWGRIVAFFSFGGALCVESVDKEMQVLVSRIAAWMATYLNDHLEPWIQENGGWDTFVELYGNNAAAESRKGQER

Point of comparison: B11, Ki 1 nM. Against it:
- B12 — 29-fold higher, 28.8 nM
- B1 — within 1.5-fold, 1.4 nM
- B2 — 400-fold higher, 402 nM
- B3 — 12-fold higher, 12 nM
- B4 — 7.7-fold higher, 7.7 nM
- B5 — 1.9-fold higher, 1.9 nM
- B6 — 390-fold higher, 386 nM
- B7 — 420-fold higher, 416 nM
- B8 — 25-fold higher, 24.9 nM
- B9 — far higher, 100000 nM
- B10 — 4-fold higher, 4 nM

target: T3, BCL-2 (UniProt P10415 1-217, limits assumed); assay: Ki (Table 6); method not stated
T3 construct: Target of the Ki columns
T3 sequence (P10415 1-217 limits assumed): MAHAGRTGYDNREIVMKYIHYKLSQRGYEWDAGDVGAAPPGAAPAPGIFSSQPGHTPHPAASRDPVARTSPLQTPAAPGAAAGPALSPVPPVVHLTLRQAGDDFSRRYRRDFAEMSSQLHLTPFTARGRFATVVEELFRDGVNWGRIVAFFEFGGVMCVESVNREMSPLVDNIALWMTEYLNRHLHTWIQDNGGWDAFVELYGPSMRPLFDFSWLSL

Point of comparison: B3, Ki 67 nM. Against it:
- B12 — within 1.5-fold, 88.2 nM
- B1 — 21-fold lower, 3.2 nM
- B2 — 2.1-fold higher, 140 nM
- B4 — 2.6-fold lower, 25.6 nM
- B5 — 14-fold lower, 4.8 nM
- B6 — 16-fold higher, 1090 nM
- B7 — 6-fold higher, 405 nM
- B8 — 1.5-fold lower, 43.9 nM
- B9 — 1500-fold higher, 100000 nM
- B10 — 3-fold lower, 22 nM
- B11 — 11-fold lower, 6 nM

target: T1, MCL-1; assay: Ki; method not stated; unit not printed (nM per Table 6)

With Ac-IWIAQALR[R8]IGDEFN[St]YYA[R5]A-NH2 (staple 16-20, 9-16) [SEQ ID NO: 1784] the Ki was 11.6 nM.

target: T2, BCL-XL; assay: as above

For Ac-IWIAQALR[R8]IGDEFN[St]YYA[R5]A-NH2 (staple 16-20, 9-16) [SEQ ID NO: 1784], the Ki was 24.2 nM.

target: T3, BCL-2; assay: as above

In the case of Ac-IWIAQALR[R8]IGDEFN[St]YYA[R5]A-NH2 (staple 16-20, 9-16) [SEQ ID NO: 1784], the Ki is reported as 57.7 nM.
